Measured values reported in patent US20180085456A1 (AFFIMED, published 2018).

Target: T1, CD30 on CD30+ lymphoma cells (KARPAS-299) (UniProt P28908 19-595, limits assumed)
T1 sequence (looked up): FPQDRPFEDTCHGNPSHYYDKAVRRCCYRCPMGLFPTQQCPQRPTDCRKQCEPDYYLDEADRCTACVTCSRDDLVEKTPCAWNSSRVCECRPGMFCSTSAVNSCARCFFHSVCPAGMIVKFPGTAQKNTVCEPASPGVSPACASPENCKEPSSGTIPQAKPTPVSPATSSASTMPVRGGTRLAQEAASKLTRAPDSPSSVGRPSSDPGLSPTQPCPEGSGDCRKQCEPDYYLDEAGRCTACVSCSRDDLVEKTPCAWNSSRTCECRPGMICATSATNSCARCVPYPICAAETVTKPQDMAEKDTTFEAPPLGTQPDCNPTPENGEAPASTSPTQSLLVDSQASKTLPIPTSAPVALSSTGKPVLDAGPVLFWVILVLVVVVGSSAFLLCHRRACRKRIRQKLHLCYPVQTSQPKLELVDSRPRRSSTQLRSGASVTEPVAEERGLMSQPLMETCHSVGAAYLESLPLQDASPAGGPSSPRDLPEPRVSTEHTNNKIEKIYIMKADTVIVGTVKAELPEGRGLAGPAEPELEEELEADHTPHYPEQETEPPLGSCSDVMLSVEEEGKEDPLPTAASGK
Assay: cell-based or functional assay

- potency and efficacy toward target and effector cells (EC50): 0.015 nM
B1: bispecific CD30/CD16A tandem diabody (AFM13) (bispecific antibody)
chain: QVQLVQSGAEVKKPGESLKVSCKASGYTFTSYYMHWVRQAPGQGLEWMGIINPSGGSTSYAQKFQGRVTMTRDTSTSTVYMELSSLRSEDTAVYYCARGSAYYYDFADYWGQGTLVTVSSGGSGGSGGSDIVMTQSPKFMSTSVGDRVTVTCKASQNVGTNVAWFQQKPGQSPKVLIYSASYRYSGVPDRFTGSGSGTDFTLTISNVQSEDLAEYFCQQYHTYPLTFGGGTKLEINGGSGGSGGSQVQLQQSGAELARPGASVKMSCKASGYTFTTYTIHWVRQRPGHDLEWIGYINPSSGYSDYNQNFKGKTTLTADKSSNTAYMQLNSLTSEDSAVYYCARRADYGNYEYTWFAYWGQGTTVTVSSGGSGGSGGSSYVLTQPSSVSVAPGQTATISCGGHNIGSKNVHWYQQRPGQSPVLVIYQDNKRPSGIPERFSGSNSGNTATLTISGTQAMDEADYYCQVWDNYSVLFGGGTKLTVL
